# Assay: soluble on expression in E. coli; label from the status in PepcDB or PDB records
row,Sequence,soluble on expression in E. coli
1,MLATPGRFFEKFQKMDKVYRRFYQHELAEYQFTPNEIAVILFLYNNAPDLDTATDIVRCKGISKGLVARSVDSLCREGYLTAVREPADRRIMHLKLSEKSRPITERIAVKQKELAGKIECGITPEELRITSATLDKLLINTEQLLKGKENHAE,soluble
2,SNAMSQEAFENKLYANLEAVIDPELGVDIVNLGLVYDVTADENNNAVITMTMTSIGCPMAGQIVSDVKKVLSTNVPEVNEIEVNVVWNPPWSKERMSRMAKIALGIRD,soluble
3,MSERVKVAILGSGNIGTDLMYKLLKNPGHMELVAVVGIDPKSEGLARARALGLEASHEGIAYILERPEIKIVFDATSAKAHVRHAKLLREAGKIAIDLTPAARGPYVVPPVNLKEHLDKDNVNLITCGGQATIPLVYAVHRVAPVLYAEMVSTVASRSAGPGTRQNIDEFTFTTARGLEAIGGAKKGKAIIILNPAEPPILMTNTVRCIPEDEGFDREAVVASVRAMEREVQAYVPGYRLKADPVFERLPTPWGERTVVSMLLEVEGAGDYLPKYAGNLDIMTASARRVGEVFAQHLLGKPVEEVVA,soluble
4,MKAAPLIGISRHRLSTDGEGVTTLVAFHGCPLRCKYCLNPQSLHSEGIWKNYDCEQLYEEVRQDELYFLATNGGITFGGGEPCLQSDFIYEFRQLCGQEWQLSVETSLNVTQENIEKLVPVVDSYIIDIKDINNTIYQKYTGKNNEKVLHNLQYLIEHGKNEQIIVRTPVIPAYNTENDVDNSIRLLKEMGIIQFDRFTYKTPNNCQP,not soluble
5,MGSDKIHHHHHHMSNSLKASTTGLGIVDKARKRLGWTKTSTACWWQDAHTSRATLRRFWQGDRIQQEIFIAICQAVGINDWQNIAEIPNADFEETSTQYLDWDDAPDLESFYGRNQELAQLEEWILGDRCKLIIITGIAGIGKTALALALADLLQLKFDGLIWKTLHSVPSLVPLLDGLLHTFKQTPVDDIPSDTAKLIHHLQQRRCLLILDGLDESEKHYHQFIQQLSRAHHQSCIILTSREQPNIIESNTKTVRSLTLTGLPKDDAVKLLQARGFTGKEIGLSPLIQLYRGNPLALKLVTPLIQSVFGGNIAAFLSQNTIVIGDRLRAILKQQFEQLSDLEQNILYWLAIWQQPISFSRLQTHLLISLDPATVLDAIVSLERRSLLEKWICSDAPAFTLQPLVMKIATDELVERATQEIIQVMQSRDIADFKVLRTHWLLRPGSDDIVGDRILHQLQEKLWQIYGANLVQNLQQILLLLNDKSPLTIGYIACNITTIITKGV,not soluble
6,MDDDFLPRRLKYSKHSLMLVALDYIPKELHKCLDMDRLEDVSAGGAYTTKQMLEEILNSDSRFRIYGNAEVFEKLLEKYMNFTSCREKFGFEKLQVLCVPIPMSPNLKGEKYLTKQDMFEHVQFYLMDVFHHTGFPFDNVVISLAFIKFRADRLNGCMEFVSNAREVLNSIESEIDQFLDELLDILNAEYFPKNYALPSKNPSFDTLYKQWKSFFPDWKPDELDSIQRFLEDRYSHLPPHKNAEKYGGILFVNHYLTNKYRELIDSRPEVFLPYNAMNRHKAPITVRVILFKDTKLVLRGELYKAMNQAYPDRVPIDYTDDLEEGIIYAMNFEDVFKEFGDLWYDIEFILTKVTRTNNATPILTLSGEFCIPGLQAFYNIFHVMNNVLRLFQKVKKEMWHFVCGYVKILEVRLKPFEDTPCFITNTALETIIQELCEYWRMFENAPFKDIRTVKGATFTADDLKNELSHIGVLDIFPELGELVDTGYQAILEVKQNADNLKTWDLMDYLESTLIFCFSSRFEFLNNLLEIQEGIHPKNENLANIFLGITSKPENLLPYLIDKSRYQDVLPTVPLERHRVRVTYNFSIDDETISEPTPVPQQLEKKTENCSECNDVRMEMNTVKDVLQNVQKQLKNMQQNSEQFETKLVASDNKTKNFEKQLEDERRKNNKHLESSRKTLISKNEQLEALKRRATALSNCQAENQTLKFKIAEHHLLEKQLNISNKDVTQARDQLSGQISELEIQLKSELKTVQHLKKEQTISCNLTNEITKLKDQIEREKLCSKQLEKEISQLRTEADEMNIVMTQSLEMENLQLRDATKKFETENASLLKTNQQLSIQNEEQKRLIQVLLEKQQTAPSSSDFPVPSTQMTDNEENSRQQLWKYQKIKDSFRDGIKLRKAEAMVKKLTSLNRDPGVHQMAHRELENFKKLTSHYLQAIEMNILKIKNNGSSDLEQLPEAPKFSDEFMRFYRNATGKQTLTSASFSSGNSRGTQSYGSSISTMPSTSSRGNVQHHSGSAVRGQSITPTGLSQVPMSPRKLFSQPNIVTASITSTELDDTECAICLDEMTNFKETIKCQCRRRFHLECATKWLNEKRECPTCRKLLLNPSDYPPLN,not soluble
7,MNEIKLKYDTQVSVVHYESLDSRSFKSFSMPKWSKLVNKLSVPIEANYKYARGVAVYGDIKDNTNDHGEIIKKHRNDKNVIYRNVIVLDYDEINDVKQLHDAISSVLSSVAWYWHTSFSHTTEQARIRLYIPLNERISADDYRKYTKVLANKIGHKVDEGSYQPSRCFALPVIQKGHIFIKRVNDCPIMDVDMLEQWSKEYKQSNGSPNIKGYTRRDSAYWRDIAFGVSEGERNSTLASITGYLLRRYVDPNLVYGLVSAWASVCKPPINQSEVNNTFKSILKKDSKNS,not soluble
8,MSLNLDYTTYRIICSHPFGISRSTHTYYDIVYIYISDGEYIGRGEAAPSVRYDESTNQIITHLKSIDNIDNNLNLEEGAFWCKKNSNGISSLEAALSTAWLDLWTKKNNRRISTYFNSGKNMLYTSFTIAIGDLDLIPKKIEEAKSYNILKIKLGINEQHDKNIIKLIRKETDKIIRVDANEGWDLDTGKKMCKWLADHNVEFVEQPFKAQNLGDTAKLRDVSPLPLIADENSIKSSNIPDIAHAFDGINIKLMKCGSLFEAKKMIDLARKYDMKIMLGCMVESSIGITAMSNLSPQVDFADLDGNLLIDNDPYIGVKVVDGKLKLPSGDGLGLTLNQKYRKDFGNLKEGHHHHHH,soluble
9,MGSDKIHHHHHHMTHDLLDLLRQWHQSPDEAWVLAVLTQVQGSSYRKPGAMMLFHPMGKSYGMLSGGCLEADLRRHAQQVIQSQCVAQVEYDASDESDSSYQLGCGGIVNIMLVTVTKANDYLGFNPLLAALARGDSVEYELSLPANASPCQQASAKLSIVPLSDNLTQAQLKGAHKAVTAYKHEVLTMRLAPPIALGIFGAGLDAQPVAAMAQQLGWQVSVFDERSAYGRLYDFPSVKVVKGPFDAIEPAILKRLDAAIVMSHNLNLDAKALSLLASLSQPHSHNNLAYLALLGPPQRRDRVLRIAGLELADIKCFFSAPAGLALGGELPSSVALSIVSQCHGVLHGSAIIALDEVMGCP,not soluble
10,MHSKMDCVSRSPLFSPLAPAVKAKLITVTHHRKFYQKGQLIRQPLDHQEGMLILDEGTAKIYALAANGKEKIIELLRSGDVVGQHWLFAPHENQGFIQATSDAWVCSIQYDDFQRLLGESASLSLAMINNFGNQLIEAEKNQLRRDLLDAKARLMAYLRDCAVESGQIEFELPLKKKELANILGITPETLSRQFKQLAAEGQIIVNKRQITIC,not soluble
11,PVIGSVAPESLAAQAGLEAGQELLAVDGEPVTGWNGVNLQLVRRLGESGTLEVRVQEKGSNVDSTHQVRLDGWLKGEDNPDPIASLGIRPWRPALPPVLAELDPKGPAQAAGLKLGDRLQSIDGIAVDDWQQVVDSVRARPGQRVQLKVLRDGEVLDVALELAVRGEGKARSGYMGAGVAGTEWPAEMLREVSYGPLEAVGQALSRTWTMSLLTLDSIKKMLLGELSVKNLSGPITIAKVAGASAQSGVGDFLNF,not soluble
12,AALGPSSQNVTEYVVRVPKNTTKKYNIMAFNAADKVNFATWNQARLERDLSNKKIYQEEEMPESGAGSEFNRKLREEARRKKYGIVLKEFRPEDQPWLLRVNGKSGRKFKGIKKGGVTENTSYYIFTQCPDGAFEAFPVHNWYNFTPLARHRTLTAEEAEEEWERRNKVLN,soluble
13,MINQDFILSQVVGGSLDAVAREMSATVTRTARSPLFNEAHDFTTGVFDLSGKKSRLVAQAPGCTLHLYAVVGAVDHLLDAFRYDLHPGDILLVNDPYHGGSHSLDWTIVMPVFYNRKPILLPAVRSHMADNGGPVAGGYNPRSKDIWHDGLRIPPLKIYERGEKRRDVFDLIVANNRLSHWLEGDLNAMIGACKVAASRIQTMLDKYGAEKVITAIDNRIQYTENRVRDEISSWPDGTYVGETFADHDFQGNRDIKVRATVTVKGSDLHIDFTGSSPQVKGFINSPLSNTTSFAFVGISTCCDEDIPINEGYMNPVTVTAPIGTVVNPQLPAPCGHATACVGAEIAEAVLQAISQCAPKRVGVNAHKLPLAYSHGKYDDGKPWVNLNFYGYTGGAGAAYETDGWGLYPPVMTGVILPSIEMTEVQYPSRVLKHEYTSDFTGAGRWRGTPGLDVQIQHLKESRTSVMMAGGRNTTKGFCGAGDSPSNKVIVGYGTDEAREIDETAFEVKMPVGGIIQFYRAGGGGWGNPLEREPEKVLDD,not soluble
14,MGSSHHHHHHSQDPNSLEVLFQGPMAGGRDRGDLAARQLVFLLPEHLKDASKKKKKSSLLFVKLANPHSGEGATYLIDMCLQQLFEIKVFKEKHHSWFINQSVQSGGLLHFATPMDPLFLLLHYLLKAGKEGKYQPLDQVVVDDTFPDCTLLLRFPELEKSLRHVTEEKEVNSKKYYKYSSEKTLKWLEKKVNQTVVALKANNVNVGARVQSSAYFSGGQVSRDKEEDYVRYAHGLISDYIPKELSDDLSKFLKLPEPPASLPNPPSKKLKLSDEPVEAKEDYTKFNTKDLKTGKKNSKMTAAQKALAKVDKSGMKSIDAFFGAKNKKTGKI,soluble
15,MNILQEPIDFLKKEELKNIDLSQMSKKERYKIWKRIPKCELHCHLDLCFSADFFVSCIRKYNLQPNLSDEEVLDYYLFAKGGKSLGEFVEKAIKVADIFHDYEVIEDLAKHAVFNKYKEGVVLMEFRYSPTFVAFKYNLDIELIHQAIVKGIKEVVELLDHKIHVALMCIGDTGHEAANIKASADFCLKHKADFVGFDHGGHEVDLKEYKEIFDYVRESGVPLSVHAGEDVTLPNLNTLYSAIQVLKVERIGHGIRVAESQELIDMVKEKNILLEVCPISNVLLKNAKSMDTHPIRQLYDAGVKVSVNSDDPGMFLTNINDDYEELYTHLNFTLEDFMKMNEWALEKSFMDSNIKDKIKNLYFKGEFEAYV,soluble
16,QYRIIDFKRDKDGIPGRVATIEYDPNRSANIALINYADGEKRYIIAPKNLKVGMEIMSGPDADIKIGNALPLENIPVGTLVHNIELKPGRGGQLVRAAGTSAQVLGKEGKYVIVRLASGEVRMILGKCRATVGEVGN,soluble
17,MSPSIFPPINFLFQNSALLSSFAAQKALSNGHPSGSSLAALEKLSKAFRRPDLHIEKLASSCIDKQKDLKMTNVVPSRNRYGRPYISGRPLLTCDRQKIVECYKKGMKKIHIAKQLGITHSCVSKVLRR,not soluble
18,MSSKVSPLAPTDVPAMPMIAGVRLATAAAGIRYKGRTDVLLVEMEKGTTVAGVFTTSKCASAPVEWCRDKLKGGSARALVVNSGNANAFTGKSGKQAATLTAQLAAKAIGCKPAEVFLASTGVIGEPLDATKFDGVLDALALDAGPDGWMDAAKAIMTTDTFPKVATATVKLGKAKVTINGMAKGAGMIAPDMATMLSFIFTDAPLSASCLQALLKAGVTDTFNAVTIDGDTSTSDTLLAFATGAAAENGAPKISRASDPRLKAFVKAFNAVLADLAEQVARDGEGARKLVEIIVEGAKTKVSARKIALSIANSPLVKTAIAGEDANWGRVVMAVGKAGEPADRDKLSISFNGIRVAKAGARDPSYNEKEVSAEMKKPVIQIKVALGLGKGRDRVLTCDLTKEYVAINGDYRSLEHHHHHH,not soluble
19,KNFHVVLEAAWLVRDVKTADDAIGVAISEAGKRLNPKLDFVEVDVGTTSCPVCGEPFSSVFIAANTALVGLIFEMKVFDAESAEHAERIAKSVIGKSLRDVP,not soluble

# Source: the DeepSol protein solubility set
